Source: article PMC4996978, “A MUB E2 structure reveals E1 selectivity between cognate ubiquitin E2s in eukaryotes” (Nature Communications, 2016)

How the values were obtained:
GST-AtUBC8 = target: T1, GST-AtUBC8 (Arabidopsis thaliana, UniProt P35131 1-148); assay: pull-down; GST-AtUBC8 immobilized on GSH resin; equimolar His-tagged AtMUB3, AtMUB3 mutants and Ub incubated separately for 15 min; washed three times with sonication buffer (50 mM Tris-HCl pH 7.5, 300 mM NaCl, 10% glycerol, 10 mM imidazole); immunoblot; settings: both partners purified
T1 construct: Arabidopsis thaliana ubiquitin-conjugating enzyme E2 8 (AtUBC8); also called GST-tagged AtUBC8; source: E. coli Rosetta 2 (DE3) pLacI, soluble extract fraction immobilized on GSH resin and washed
T1 sequence (P35131 whole entry): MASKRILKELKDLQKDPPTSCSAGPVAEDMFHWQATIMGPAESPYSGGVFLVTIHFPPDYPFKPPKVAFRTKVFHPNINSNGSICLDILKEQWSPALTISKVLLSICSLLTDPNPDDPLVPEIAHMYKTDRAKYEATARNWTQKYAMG

biotinylated E2 (Ube2D3) = target: T2, biotinylated E2 (Ube2D3) (human, UniProt P61077 1-147, biotin); assay: inhibition of E2 activation (HTRF-FRET E2∼Ub formation assay); 1 nM E1 (HsUBE1), 10 μM Mg-ATP, 50 nM Ub-fluorescein, 0.9 nM streptavidin-terbium, 5 nM biotinylated Ube2D3; 50 mM Tris-HCl pH 7.5, 5 mM MgCl2, 0.05% CHAPS; HsMUB pre-incubated with E2 for 15 min; initial velocity against HsMUB concentration fit to a one-site binding model; IC50 equivalent to Ki; settings: both partners purified
T2 construct: human ubiquitin-conjugating enzyme E2 D3 (Ube2D3), biotinylated, labelled with streptavidin-terbium in the assay; source: reagents adapted from the E1/E2 Lite kit (LifeSensors, Malvern, PA)
T2 sequence (P61077 whole entry): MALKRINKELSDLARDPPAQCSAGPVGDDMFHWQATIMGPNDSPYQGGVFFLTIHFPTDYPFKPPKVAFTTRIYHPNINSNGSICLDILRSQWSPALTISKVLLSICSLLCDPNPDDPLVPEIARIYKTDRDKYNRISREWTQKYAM

| Binder | binding result (GST-AtUBC8) | Ki (biotinylated E2 (Ube2D3)) [nM] |
| --- | --- | --- |
| AtMUB3-His (natural protein, Arabidopsis thaliana, UniProt Q9SW27 1-118, looked up, coding region cloned without stop codon into pET28b; also called His-tagged AtMUB3; not shown: His6, C-terminal, kept) MPEEESIDIKFRLYDGSDIGPFRYSAASTVDFLKQRVVSDWPKGKTVVPKGINEVKLISSGKILENNKTVGQCKTPFGDIAGGVIVMHVVVQPSLAKSKTEKKVDKAPKAVICTCTIL | binds |  |
| AtMUB3 P76A F77A G78A D79A I80A (All A) (natural protein, Arabidopsis thaliana, Generated by bridging-PCR and cloned into pET28b; also called AtMUB3 All A LBL mutant; AtMUB3 with the core LBL residues ProPheGlyAspIle all converted to alanines) MPEEESIDIKFRLYDGSDIGPFRYSAASTVDFLKQRVVSDWPKGKTVVPKGINEVKLISSGKILENNKTVGQCKTAAAAAAGGVIVMHVVVQPSLAKSKTEKKVDKAPKAVICTCTIL | binds |  |
| HsMUB (natural protein, human, UniProt O95164 1-117, looked up, Homo sapiens membrane-anchored ubiquitin-fold protein (HsMUB); coding region cloned without stop codon into pET28b; also called human homologue of MUB; source: E. coli Rosetta 2 (DE3) pLacI, purified) MSSNVPADMINLRLILVSGKTKEFLFSPNDSASDIAKHVYDNWPMDWEEEQVSSPNILRLIYQGRFLHGNVTLGALKLPFGKTTVMHLVARETLPEPNSQGQRNREKTGESNCCVIL |  | 220 ± 16 |
